Laboratory results reported in patent US20210380703A1.
Changes are numbered by the printed parent chain.

B1: 376_C12 (antibody, V domains shown)
VH: EVQLLESGGGLVQPGGSLRLSCAASGFTFSSYSMNWVRQAPGKGLEWVAGINYNGGYTGYADSVKGRFTISRDNSKNTLYLQMNSLRAEDTAVYYCARSANWHDTALDYWGQGTLVTVSS
VL: DIQMTQSPSSLSASVGDRVTITCRASQSILTYVNWYQQKPGKAPKLLIYAATSRASGVPSRFSGSGSGTDFTLTISSLQPEDFATYYCQQSYDSPLTFGGGTKVEIK
B2: 365_D05 (antibody, V domains shown)
VH: B1 VH with S30D, G59S, N101T, A106H
VL: B1 VL with D93N
B3: 369_E10 (antibody, V domains shown)
VH: B1 VH with A49S, G50N, T58K, G59S, N101T
VL: B1 VL with T31S, L47V, S94L
B4: 369_G07 (antibody, V domains shown)
VH: B1 VH with G59S, N101T, A106H
VL: B1 VL with L47V, S94N
B5: 376_D05 (antibody, V domains shown)
VH: B1 VH with A49S, G50N, T58K
VL: B1 VL with L30V, T31S, R54L, S94T
B6: 376_B07 (antibody, V domains shown)
VH: B1 VH with S30D, A49S, G55S, G59S, N101T
VL: B1 VL with T31S, V33L, L47V, A50Y, A51V, T52S, S53N, S94N
B7: 369_F07 (antibody, V domains shown)
VH: B1 VH with S30D, T58K, G59S, N101T, A106H
VL: B1 VL with T31S, L47V, D93E
B8: 367_H07 (antibody, V domains shown)
VH: B1 VH with G50N, N101T
VL: B1 VL with T31S, L47V, A51T, D93E, S94N
B9: 376_C06 (antibody, V domains shown)
VH: B1 VH with S33G, G59S, N101T
VL: B1 VL with T31S, V33L, L47V
B10: 367_C03 (antibody, V domains shown)
VH: B1 VH with G50N, N101T
VL: B1 VL with T31S, L47V, A51T, D93E, S94N
B11: 365_B03 (antibody, V domains shown)
VH: B1 VH with N101T, A106H
VL: B1 VL with L30V, T31S, V33L, D93E, S94N
B12: 373_G05 (antibody, V domains shown)
VH: B1 VH with G59S, N101T, A106H
VL: B1 VL with T31S, V33L, R54L, D93E, S94L
B13: 376_H09 (antibody, V domains shown)
VH: B1 VH with S31D, G50N
VL: B1 VL with L30I, V33L, L47V, A50Y, A51V, T52S, S53N, R54L, A55P
B14: 365_A07 (antibody, V domains shown)
VH: B1 VH with S33G, G55S, T58K, N101T, A106H
VL: B1 VL with L30V, T31S, V33L, D93N, S94L
B15: 368_D10 (antibody, V domains shown)
VH: B1 VH with S30D, S33G, G55S, G59S, N101T
VL: B1 VL with T31S, V33L, L47V
B16: 365_E02 (antibody, V domains shown)
VH: B1 VH with G50N, G59S, R98K, N101T, A106H
VL: B1 VL with L30I, T31S, V33L, D93E, S94N
B17: 376_B01 (antibody, V domains shown)
VH: B1 VH with S30D, G59S, N101T, A106H
VL: B1 VL with L47V, D93N, S94L
B18: 376_D11 (antibody, V domains shown)
VH: B1 VH with S33G, G50N
VL: B1 VL with T31S, V33L, L47V, D93N, S94N
B19: 370_G12 (antibody, V domains shown)
VH: B1 VH with T58K, N101T
VL: B1 VL with L30I, V33L, R54L, Y92D, D93E
B20: 373_E06 (antibody, V domains shown)
VH: B1 VH with S30D, G55S, T58K, G59S, N101T, A106H
VL: B1 VL with T31R, V33L, R54L, A55H, S94N
B21: 374_C05 (antibody, V domains shown)
VH: B1 VH with S30D, G55S, T58K, G59S, N101T, A106H
VL: B1 VL with L30I, T31R, V33L, L47V, S94N
B22: 370_H03 (antibody, V domains shown)
VH: B1 VH with S30D, G55S, T58K, N101T, A106H
VL: B1 VL with V33L, R54L, S94T
B23: 370_F08 (antibody, V domains shown)
VH: B1 VH with S30D, G59S, N101T, A106H
VL: B1 VL with L30I, T31S, A55H, D93N, S94L
B24: 373_H10 (antibody, V domains shown)
VH: B1 VH with N101T, A106H
VL: B1 VL with T31S, D93S, S94L
B25: 376_G08 (antibody, V domains shown)
VH: B1 VH with S30D, S33G, G50N, G59S
VL: B1 VL with T31S, L47V, S94T
B26: 374_C08 (antibody, V domains shown)
VH: B1 VH with S30D, S33G, A49S, G55S, T58K, G59S, N101T
VL: B1 VL with T31S, A51V
B27: 365_F07 (antibody, V domains shown)
VH: B1 VH with A49S, G50N, T58K, G59S, N101T
VL: B1 VL with T31S, L47V, S94L
B28: 376_A06 (antibody, V domains shown)
VH: B1 VH with S30D, A49S, G55S, G59S, N101T
VL: B1 VL with T31S, V33L, L47V, A50Y, A51V, T52S, S53N, S94N
B29: 365_B09 (antibody, V domains shown)
VH: B1 VH with S30D, G55S, T58K, G59S, N101T, A106H
VL: B1 VL with T31R, V33L, R54L, A55H, S94N
B30: 368_C01 (antibody, V domains shown)
VH: B1 VH with S30D, S33G, N101T
VL: B1 VL with L30I, V33L
B31: 372_F07 (antibody, V domains shown)
VH: B1 VH with S30D, S31D, G55S, T58K, N101T, A106H
VL: B1 VL with V33L, L47V, D93E, S94L
B32: 370_A09 (antibody, V domains shown)
VH: B1 VH with N101T, A106H
VL: B1 VL with V33L, L47V, S94T
B33: 376_G09 (antibody, V domains shown)
VH: B1 VH with S30D, A49S, G55S, T58K
VL: B1 VL with L30S, T31Y, V33L, A51V, S94N
B34: 376_E03 (antibody, V domains shown)
VH: B1 VH with S33G, G50N
VL: B1 VL with T31S, L47V, R54L, S94L
B35: 366_A03 (antibody, V domains shown)
VH: B1 VH with S30D, G55S, T58K, N101T, A106H
VL: B1 VL with L30S, T31S, V33L, R54L, D93S, S94N
B36: 365_G12 (antibody, V domains shown)
VH: B1 VH with S33G, G55S, G59S, N101T
VL: B1 VL with T31S, L47V, D93S, S94N
B37: 374_C11 (antibody, V domains shown)
VH: B1 VH with G55S, T58K, N101T, A106H
VL: B1 VL with V33L, D93E
B38: 373_C09 (antibody, V domains shown)
VH: B1 VH with S30D, G55S, T58K, G59S, N101T, A106H
VL: B1 VL with V33L, L47V, D93E, S94L
B39: 373_E03 (antibody, V domains shown)
VH: B1 VH with S30D, S33G, A49S, G50N, N101T
VL: B1 VL with T31S, L47V, S94L
B40: 366_B04 (antibody, V domains shown)
VH: B1 VH with S30D, T58K, N101T, A106H
VL: B1 VL with L47V, A55H, S94T
B41: 367_A09 (antibody, V domains shown)
VH: B1 VH with S30D, S33G, G59S, N101T, A106H
VL: B1 VL with T31S, L47V, A55H, S94T
B42: 376_H10 (antibody, V domains shown)
VH: B1 VH with S30D, A49S, G55S, T58K, G59S
VL: B1 VL with V33L, L47V, A55H
B43: 369_A05 (antibody, V domains shown)
VH: B1 VH with N101T, A106H
VL: B1 VL with L47V, D93E
B44: 376_C11 (antibody, V domains shown)
VH: B1 VH with S30D, G55S, T58K, G59S, N101T, A106H
VL: B1 VL with V33L, L47V, S94N
B45: 376_E08 (antibody, V domains shown)
VH: B1 VH with S31D, S33G, G59S
VL: B1 VL with L30V, T31S, L47V
B46: 369_C10 (antibody, V domains shown)
VH: B1 VH with G50N, G59S, N101T
VL: B1 VL with L30V, V33L, R54L, A55H, Y92D, D93S, S94L
B47: 373_E04 (antibody, V domains shown)
VH: B1 VH with S30D, G59S, N101T, A106H
VL: B1 VL with D93N
B48: 376_B06 (antibody, V domains shown)
VH: B1 VH with G55S, T58K, N101T, A106H
VL: B1 VL with V33L, S94L

Target: human Fc (human)
Test: ELISA; negative control

optical density [OD]	Binder
0.438	B1
0.357	B2
0.412	B3
0.32	B4
0.215	B5
0.234	B6
0.335	B7
0.297	B8
0.29	B9
0.275	B10
0.444	B11
0.273	B12
0.281	B13
0.284	B14
0.245	B15
0.357	B16
0.308	B17
0.267	B18
0.418	B19
0.187	B20
0.175	B21
0.381	B22
0.495	B23
0.2	B24

optical density [OD]	Binder
0.22	B25
0.178	B26
0.331	B27
0.262	B28
0.272	B29
0.41	B30
0.296	B31
0.361	B32
0.23	B33
0.234	B34
0.303	B35
0.556	B36
0.471	B37
0.17	B38
0.194	B39
0.331	B40
0.259	B41
0.318	B42
0.588	B43
0.23	B44
0.332	B45
0.32	B46
0.251	B47
0.222	B48
